# Measurements taken from IntAct's records for PubMed 21785459.
# B1: Parkinson disease protein 7 (Homo sapiens), Q99497 (parent)
# chain: MASKRALVILAKGAEEMETVIPVDVMRRAGIKVTVAGLAGKDPVQCSRDVVICPDASLEDAKKEGPYDVVVLPGGNLGAQNLSESAAVKEILKEQENRKGLIAAICAGPTALLAHEIGFGSKVTTHPLAKDKMMNGGHYTYSENRVEKDGLILTSRGPGTSFEFALAIVEALNGKEVAAQVKAPLVLKD
# Variants of: B1
# Details: with fadd_human FADD
row,Variant,effect of a mutation on the interaction
1,L166A,decreasing interaction

# Variants of: B1
# Details: with fadd_human FADD
# Remark: another data set of the same source
row,Variant,effect of a mutation on the interaction
1,L166P,disrupting interaction
